# Test results from PMC10791543 (Science signaling, 2023).
# B1: GST-Rhotekin-RBD (domain or fragment, mouse, UniProt Q8C6B2-2 7-89, looked up)
# chain: ILEDLNMLYIRQMALSLEDTELQRKLDHEIRMRDGACKLLAACSQREQALEATKSLLVCNSRILSYMGELQRRKEAQVLEKTG
# Assays:
# Test in all cases: other fluorescence titration
# [1] = biological target: recombinant RHOA^L57V (human) (UniProt P61586)
# [2] = biological target: recombinant RHOA^WT (human) (UniProt P61586)
# recombinant RHOA^WT = recombinant RHOA^WT (human, UniProt P61586 1-193)
# recombinant RHOA^L57V = recombinant RHOA^L57V (human, UniProt P61586 1-193, L57V)
# Sequence of recombinant RHOA^L57V (P61586 whole entry L57V): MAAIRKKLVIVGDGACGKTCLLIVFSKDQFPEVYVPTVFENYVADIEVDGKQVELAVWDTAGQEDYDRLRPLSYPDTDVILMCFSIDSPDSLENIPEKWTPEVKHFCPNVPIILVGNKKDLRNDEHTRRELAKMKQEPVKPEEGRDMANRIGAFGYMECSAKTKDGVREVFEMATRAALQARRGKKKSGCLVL
# Sequence of recombinant RHOA^WT (human) (P61586 whole entry): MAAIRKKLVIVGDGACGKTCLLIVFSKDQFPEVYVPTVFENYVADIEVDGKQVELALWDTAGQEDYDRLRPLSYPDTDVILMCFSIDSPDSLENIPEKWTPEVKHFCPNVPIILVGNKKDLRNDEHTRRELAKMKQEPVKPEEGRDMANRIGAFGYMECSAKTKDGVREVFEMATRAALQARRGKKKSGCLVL
# Sequence of recombinant RHOA^WT (P61586 whole entry): as above
# Sequence of recombinant RHOA^L57V (human) (P61586 whole entry L57V): as the sequence (P61586 whole entry L57V) above
Molecule,Kd [1],Kd [2],Kd (recombinant RHOA^WT),Kd (recombinant RHOA^L57V)
GST-ROCK1-RBD (domain or fragment),243 nM,439 nM,–,–
B1,–,–,258 ± 15 nM,220 ± 10 nM
